{
  "source": "paper PMC11417369",
  "about": "“DNA sequence and chromatin differentiate sequence-specific transcription factor binding in the human malaria parasite Plasmodium falciparum”",
  "binders": {"B1": {"name": "CACACA_site7633 (dsDNA)", "DNA 1": "TGGGAATAACGACACACACACACACGGATATAAATA", "DNA 2": "TATTTATATCCGTGTGTGTGTGTGTCGTTATTCCCA"}, "B2": {"name": "CACACA_site2428 (dsDNA)", "DNA 1": "TACACAAACAAACACACACACACACCCCCACAAAAA", "DNA 2": "TTTTTGTGGGGGTGTGTGTGTGTGTTTGTTTGTGTA"}, "B3": {"name": "CACACA_negctrl_site669 (dsDNA)", "DNA 1": "TAACTTTTATCCTTAATTCATATATAAGATTAAATC", "DNA 2": "GATTTAATCTTATATATGAATTAAGGATAAAAGTTA"}, "B4": {"name": "CACACA_site7194 (dsDNA)", "DNA 1": "CAAACAAACGAACACACACACACACGCAAAAATGAT", "DNA 2": "ATCATTTTTGCGTGTGTGTGTGTGTTCGTTTGTTTG"}, "B5": {"name": "CACACA_site7148 (dsDNA)", "DNA 1": "CATATTCCCCCCCACACACACACACGCATACATACC", "DNA 2": "GGTATGTATGCGTGTGTGTGTGTGGGGGGGAATATG"}, "B6": {"name": "CACACA_site2306 (dsDNA)", "DNA 1": "CCCCCCCACAGACACACACACATACATACCACATAT", "DNA 2": "ATATGTGGTATGTATGTGTGTGTGTCTGTGGGGGGG"}, "B7": {"name": "CACACA_site2859 (dsDNA)", "DNA 1": "AAAAAAAAAAAACACACACACACACCCACCCATACA", "DNA 2": "TGTATGGGTGGGTGTGTGTGTGTGTTTTTTTTTTTT"}, "B8": {"name": "CACACA_site8010 (dsDNA)", "DNA 1": "CACCCCCACAGACACACACACACACCGATATATATA", "DNA 2": "TATATATATCGGTGTGTGTGTGTGTCTGTGGGGGTG"}, "B9": {"name": "CACACA_negctrl_site1739 (dsDNA)", "DNA 1": "ACGATTCAAAGGGAATATAAAATATTATTATCTATA", "DNA 2": "TATAGATAATAATATTTTATATTCCCTTTGAATCGT"}, "B10": {"name": "GTGCAC_site10341 (dsDNA)", "DNA 1": "GATAAAATGAGACCAGTGCATTATTAGTTGTACACC", "DNA 2": "GGTGTACAACTAATAATGCACTGGTCTCATTTTATC"}},
  "data": [
    {"target": "T1, PF3D7_0420300 D1 (Plasmodium falciparum, UniProt Q8I1N6 1956-2015)", "T1 sequence": "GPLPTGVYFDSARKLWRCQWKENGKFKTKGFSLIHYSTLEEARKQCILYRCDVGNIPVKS", "assay": "gcPBM; about 25 ug protein; PBS, 1% milk, 0.2 mg/ml BSA, salmon testes DNA, 0.03% Triton X-100", "settings": "tags: N-terminal GST (pGEX-4T-1), kept; label: surface-attached array probe", "values": [
      {"binder": "B1", "binding signal": "10.4 ln median PBM intensity, better of two orientations"},
      {"binder": "B2", "binding signal": "10.5 ln median PBM intensity, better of two orientations"},
      {"binder": "B3", "binding signal": "8.85 ln median PBM intensity, better of two orientations"},
      {"binder": "B4", "binding signal": "10.4 ln median PBM intensity, better of two orientations"},
      {"binder": "B5", "binding signal": "11 ln median PBM intensity, better of two orientations"},
      {"binder": "B6", "binding signal": "11 ln median PBM intensity, better of two orientations"},
      {"binder": "B7", "binding signal": "10.7 ln median PBM intensity, better of two orientations"},
      {"binder": "B8", "binding signal": "10.5 ln median PBM intensity, better of two orientations"}
    ]},
    {"target": "T2, AP2-HC D1 (Plasmodium falciparum, UniProt Q8IKR9 1316-1374)", "T2 sequence": "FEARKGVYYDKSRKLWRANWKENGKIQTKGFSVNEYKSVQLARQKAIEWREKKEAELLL", "assay": "gcPBM; about 25 ug protein; PBS, 1% milk, 0.2 mg/ml BSA, salmon testes DNA, 0.03% Triton X-100", "settings": "tags: N-terminal GST (pGEX-4T-1), kept; label: surface-attached array probe", "values": [
      {"binder": "B1", "binding signal": "11.9 ln median PBM intensity, better of two orientations"},
      {"binder": "B2", "binding signal": "12.1 ln median PBM intensity, better of two orientations"},
      {"binder": "B3", "binding signal": "9.41 ln median PBM intensity, better of two orientations"},
      {"binder": "B4", "binding signal": "11.8 ln median PBM intensity, better of two orientations"},
      {"binder": "B9", "binding signal": "9.48 ln median PBM intensity, better of two orientations"},
      {"binder": "B6", "binding signal": "11.9 ln median PBM intensity, better of two orientations"},
      {"binder": "B7", "binding signal": "11.8 ln median PBM intensity, better of two orientations"},
      {"binder": "B8", "binding signal": "11.8 ln median PBM intensity, better of two orientations"}
    ]},
    {"target": "T3, AP2-LT D1 (Plasmodium falciparum, UniProt Q8IAM1 2520-2577)", "T3 sequence": "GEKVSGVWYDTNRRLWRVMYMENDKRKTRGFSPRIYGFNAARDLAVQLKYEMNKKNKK", "assay": "gcPBM; about 25 ug protein; PBS, 1% milk, 0.2 mg/ml BSA, salmon testes DNA, 0.03% Triton X-100", "settings": "tags: N-terminal GST (pGEX-4T-1), kept; label: surface-attached array probe", "values": [
      {"binder": "B1", "binding signal": "10.7 ln median PBM intensity, better of two orientations"},
      {"binder": "B2", "binding signal": "10.7 ln median PBM intensity, better of two orientations"},
      {"binder": "B3", "binding signal": "8.63 ln median PBM intensity, better of two orientations"},
      {"binder": "B4", "binding signal": "10.8 ln median PBM intensity, better of two orientations"},
      {"binder": "B5", "binding signal": "11 ln median PBM intensity, better of two orientations"},
      {"binder": "B9", "binding signal": "8.83 ln median PBM intensity, better of two orientations"},
      {"binder": "B6", "binding signal": "11 ln median PBM intensity, better of two orientations"},
      {"binder": "B7", "binding signal": "10.8 ln median PBM intensity, better of two orientations"},
      {"binder": "B8", "binding signal": "10.8 ln median PBM intensity, better of two orientations"}
    ]},
    {"target": "T4, HDP1 homeodomain-like (Plasmodium falciparum, UniProt Q8IKH4 2990-3078)", "T4 sequence": "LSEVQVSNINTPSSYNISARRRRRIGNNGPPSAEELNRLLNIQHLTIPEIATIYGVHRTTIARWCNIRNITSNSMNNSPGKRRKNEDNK", "assay": "gcPBM; about 25 ug protein; PBS, 1% milk, 0.2 mg/ml BSA, salmon testes DNA, 0.03% Triton X-100", "settings": "tags: N-terminal GST (pGEX-4T-1), kept; chain copies: 2; label: surface-attached array probe", "values": [
      {"binder": "B10", "binding signal": "9.81 ln median PBM intensity, better of two orientations"}
    ]},
    {"target": "T5, AP2-I_D3 (AP2 domain 3) (UniProt Q8IJW6 775-824)", "T5 chain": "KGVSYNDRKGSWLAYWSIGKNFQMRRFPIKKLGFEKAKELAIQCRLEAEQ", "assay": "EMSA; EMSA: 1x binding buffer (listed as 100 mM Tris-HCl pH 7.5, 500 mM KCl, 10 mM DTT), 5 mM MgCl2, 25 ng/ul poly dI-dC, 0.05% NP-40, protein in 25% glycerol, 20 min room temperature, 6% PAGE 0.5x TBE", "settings": "protein: recombinant; tags: N-terminal GST; label: biotin; blunt", "values": [
      {"binder": "B10", "binding result": "binds"}
    ]},
    {"target": "T6, AP2-HC AP2 DBD (UniProt Q8IKR9 1320-1370)", "T6 sequence": "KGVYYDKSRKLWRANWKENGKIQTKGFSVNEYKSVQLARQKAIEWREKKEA", "assay": "EMSA; 1:1 stoichiometry; EMSA: 1x binding buffer (listed as 100 mM Tris-HCl pH 7.5, 500 mM KCl, 10 mM DTT), 5 mM MgCl2, 25 ng/ul poly dI-dC, 0.05% NP-40, protein in 25% glycerol, 20 min room temperature, 6% PAGE 0.5x TBE", "settings": "protein: recombinant; tags: N-terminal GST; label: biotin; blunt", "values": [
      {"binder": "B5", "binding result": "binds"}
    ]}
  ]
}
